Laboratory results reported in EP4714976A1 (Sunshine Lake Pharma Co., Ltd., dated 2026).
Positions count from the first letter of the chain named.

T1: FGFR4 (acro) (UniProt P22455 22-369)
T1 sequence (looked up): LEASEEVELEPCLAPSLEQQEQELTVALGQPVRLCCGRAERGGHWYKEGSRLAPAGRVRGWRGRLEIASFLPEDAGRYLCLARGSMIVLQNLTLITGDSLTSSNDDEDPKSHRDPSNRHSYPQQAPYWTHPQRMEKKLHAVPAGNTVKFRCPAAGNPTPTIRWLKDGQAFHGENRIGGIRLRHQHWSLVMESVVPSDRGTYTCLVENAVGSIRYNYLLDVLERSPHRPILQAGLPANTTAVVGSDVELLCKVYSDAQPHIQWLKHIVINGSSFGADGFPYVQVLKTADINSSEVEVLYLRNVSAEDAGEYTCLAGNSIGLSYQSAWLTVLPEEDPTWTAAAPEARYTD

B1: 3D7 scFv-Fc (Fc fusion)
chain: QVQLQQSGAELVKPGASVKMSCKASGYTFSFYNMHWVKRTPGRGLEWIGLIYPDNGDTSYNQKFKGKATLTADTSSSTAYMQLSSLTSEDSAVYYCARGGLDYWGQGTSLTVSSGGGGSGGGGSGGGGSEIVLTQSPASLAVSLGQRATISCKASQSVDYDGDSYMNWYQQKPGQPPKLLIYGISNRFSGVPDRFSGSGSGTDFTLKISTIKPEDLGMYYCLQGTHQPYTFGGGTKLEIKESKYGPPCPPCPAPEAAGGPSVFLFPPKPKDTLMISRTPEVTCVVVDVSQEDPEVQFNWYVDGVEVHNAKTKPREEQFNSTYRVVSVLTVLHQDWLNGKEYKCKVSNKGLPSSIEKTISKAKGQPREPQVYTLPPSQEEMTKNQVSLTCLVKGFYPSDIAVEWESNGQPENNYKTTPPVLDSDGSFFLYSKLTVDKSRWQEGNVFSCSVMHEALHNHYTQKSLSLSLG
notes: scFv-Fc dimer
B2: 1D7 scFv-Fc (Fc fusion)
chain: QIQLQQSGAELVKPGASVKMSCKASGYTFRYYNMHWVKRTPGQGLEWIGLIYPDNGDTSYNQKFKGKATLTADTSSSTAYMQLSSLTSEDSAVYYCARGGLDYWGQGTSLTVSSGGGGSGGGGSGGGGSDIQMTQSPSSMSASLGDRITITCQATQDIVKNLNWYQQKPGKPPSFLIYYATELAEGVPSRFSGSGSGSDYSLTISNLESEDFADYYCLQFYEFPLTFGAGTKLELKESKYGPPCPPCPAPEAAGGPSVFLFPPKPKDTLMISRTPEVTCVVVDVSQEDPEVQFNWYVDGVEVHNAKTKPREEQFNSTYRVVSVLTVLHQDWLNGKEYKCKVSNKGLPSSIEKTISKAKGQPREPQVYTLPPSQEEMTKNQVSLTCLVKGFYPSDIAVEWESNGQPENNYKTTPPVLDSDGSFFLYSKLTVDKSRWQEGNVFSCSVMHEALHNHYTQKSLSLSLG
notes: scFv-Fc dimer
B3: 2B2 scFv-Fc (Fc fusion)
chain: QLQLQQSGAELVKPGASVKMSCKASGYTFASYNLHWVKQTPGQGLEWIGLIYPENGDTSYNQKFKDKATLTADKSSTTAYIQLSSLASEDSAVYFCARGGFDYWGQGTTLTVSSGGGGSGGGGSGGGGSDIVMTQSQKFMSTSVGDRVSVTCKASQNVGTNVAWYQQKPGQSPKALIYSASYRYSGVPDRFTGSGSGTDYTLTISSVQAEDLALYYCQQHYSTPYTFGGGTKLELKESKYGPPCPPCPAPEAAGGPSVFLFPPKPKDTLMISRTPEVTCVVVDVSQEDPEVQFNWYVDGVEVHNAKTKPREEQFNSTYRVVSVLTVLHQDWLNGKEYKCKVSNKGLPSSIEKTISKAKGQPREPQVYTLPPSQEEMTKNQVSLTCLVKGFYPSDIAVEWESNGQPENNYKTTPPVLDSDGSFFLYSKLTVDKSRWQEGNVFSCSVMHEALHNHYTQKSLSLSLG
notes: scFv-Fc dimer
B4: 3B7 scFv-Fc (Fc fusion)
chain: EVQLQQSGAELVKPGASVKMSCKASGYTFRYYNMHWVKRTPGQGLEWIGLIYPDNGDTSYNQKFKGKATLTADTSSSTAYMQLSSLTSEDSAVYYCARGGFDYWGQGTTLTVSSGGGGSGGGGSGGGGSDIQMTQSPASLSASVGETVTITCGASENIYGALNWYQRKQGKSPQLLIYGATNLADGMSSRFSGSGSGRQYSLKISSLHPDDVATYYCQNVLSTPYTFGGGTKLELKESKYGPPCPPCPAPEAAGGPSVFLFPPKPKDTLMISRTPEVTCVVVDVSQEDPEVQFNWYVDGVEVHNAKTKPREEQFNSTYRVVSVLTVLHQDWLNGKEYKCKVSNKGLPSSIEKTISKAKGQPREPQVYTLPPSQEEMTKNQVSLTCLVKGFYPSDIAVEWESNGQPENNYKTTPPVLDSDGSFFLYSKLTVDKSRWQEGNVFSCSVMHEALHNHYTQKSLSLSLG
notes: scFv-Fc dimer
B5: 3C9 scFv-Fc (Fc fusion)
chain: B4 chain with V2I, T28I, F101L, T134I, L235I
notes: scFv-Fc dimer
B6: 3F5 scFv-Fc (Fc fusion)
chain: B4 chain with V2I, F101L, Q132V, M133L, L235I
notes: scFv-Fc dimer
B7: 1A3 scFv-Fc (Fc fusion)
chain: QVQLQQPGAELVKPGASVKMSCKASGYTFASYNLHWVKQTPGQGLEWIGLIYPENGDTSYNQKFKGKATLTADKSSSTAYIQLSSLTSEDSAVYFCARGGFDYWGQGTTLTVSQGGGGSGGGGSGGGGSDIQMTQSPASLSASVGETVTITCGASENIYGALNWYQRKQGKSPQLLIYGATNLADGMSSRFSGSGSGRQYSLKISSLHPDDVATYYCQNVLSTPYTFGGGTKLEIKESKYGPPCPPCPAPEAAGGPSVFLFPPKPKDTLMISRTPEVTCVVVDVSQEDPEVQFNWYVDGVEVHNAKTKPREEQFNSTYRVVSVLTVLHQDWLNGKEYKCKVSNKGLPSSIEKTISKAKGQPREPQVYTLPPSQEEMTKNQVSLTCLVKGFYPSDIAVEWESNGQPENNYKTTPPVLDSDGSFFLYSKLTVDKSRWQEGNVFSCSVMHEALHNHYTQKSLSLSLG
notes: scFv-Fc dimer
B8: 3F10 scFv-Fc (Fc fusion)
chain: B4 chain with R30S, Y31F, M34I, K38R, R39Q, G66A, T74K, I131V, Q132L, L235I
notes: scFv-Fc dimer
B9: 3A3 scFv-Fc (Fc fusion)
chain: QVQLQQSGAELVKPGASVKMSCKASGYTFTTYNIHWVRQTPGQGLEWIGLIYPDNGDTSYNQKFKAKATLTADKSSSTAYMHLSSLTSEDSAVYYCARGGFDYWGQGTTLTVSSGGGGSGGGGSGGGGSDIVMTQSHKFMSTSVGDRVSITCKASQDVNTDVSWYQQKPGQSPKLLIYSASYRYTGVPTRFTGSGSGTDFTFTISGVQAEDLADYYCQQHYNTPYTFGGGTRLEIKESKYGPPCPPCPAPEAAGGPSVFLFPPKPKDTLMISRTPEVTCVVVDVSQEDPEVQFNWYVDGVEVHNAKTKPREEQFNSTYRVVSVLTVLHQDWLNGKEYKCKVSNKGLPSSIEKTISKAKGQPREPQVYTLPPSQEEMTKNQVSLTCLVKGFYPSDIAVEWESNGQPENNYKTTPPVLDSDGSFFLYSKLTVDKSRWQEGNVFSCSVMHEALHNHYTQKSLSLSLG
notes: scFv-Fc dimer

Molecular target: T2, human FGFR2b (Kaixia Biotechnology, catalog number FGR-HM1BB) (human, UniProt P21802-3 22-378)
T2 construct: extracellular domain; bought; also called hFGFR2b; human FGFR2b protein
Test: ELISA, FGFR2b coated at 1 µg/ml

T2 sequence (P21802 other isoform, or with tags, fused parts or gaps): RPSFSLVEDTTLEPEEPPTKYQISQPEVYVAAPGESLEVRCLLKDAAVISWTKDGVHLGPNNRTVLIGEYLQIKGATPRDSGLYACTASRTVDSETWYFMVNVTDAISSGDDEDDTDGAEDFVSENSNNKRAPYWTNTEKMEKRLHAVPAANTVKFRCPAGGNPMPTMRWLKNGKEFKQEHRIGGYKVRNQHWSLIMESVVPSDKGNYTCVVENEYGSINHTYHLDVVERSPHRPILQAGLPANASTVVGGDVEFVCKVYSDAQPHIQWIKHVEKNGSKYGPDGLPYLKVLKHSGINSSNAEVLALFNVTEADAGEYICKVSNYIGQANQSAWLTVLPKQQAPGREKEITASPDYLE

| EC50 [µg/mL] | Binder |
| --- | --- |
| 0.0369 | B1 |
| 0.0154 | B2 |
| 0.0216 | B3 |
| 0.0147 | B4 |
| 0.0147 | B5 |
| 0.0159 | B6 |
| 0.00818 | B7 |
| 0.00818 | B8 |
| 0.0216 | B9 |

Molecular target: T3, recombinant cynomolgus monkey FGFR2b (cynomolgus monkey)
T3 construct: extracellular domain; bought; also called cynomolgus macaque FGFR2b
Test: ELISA, antibody 1ug/mL

| OD (450 nm) value | Binder |
| --- | --- |
| 3.3 | B1 |
| 3.17 | B2 |
| 3.19 | B3 |
| 3.12 | B4 |
| 3.25 | B5 |
| 3.17 | B6 |
| 3.27 | B7 |
| 3.22 | B8 |
| 3.2 | B9 |

Molecular target: T4, FGFR2c (acro) (UniProt P21802 22-377)
Test: ELISA

T4 sequence (P21802 22-377): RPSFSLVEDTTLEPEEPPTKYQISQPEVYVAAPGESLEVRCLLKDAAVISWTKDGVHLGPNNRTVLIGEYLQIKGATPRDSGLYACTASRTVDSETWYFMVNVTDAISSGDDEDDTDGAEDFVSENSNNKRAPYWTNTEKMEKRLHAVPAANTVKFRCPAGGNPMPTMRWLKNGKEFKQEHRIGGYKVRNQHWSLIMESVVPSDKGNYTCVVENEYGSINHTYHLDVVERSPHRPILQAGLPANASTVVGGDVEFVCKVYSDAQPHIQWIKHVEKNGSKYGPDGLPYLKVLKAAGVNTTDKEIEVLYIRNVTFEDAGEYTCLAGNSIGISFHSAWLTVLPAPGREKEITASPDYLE

| binding result | Binder |
| --- | --- |
| no binding (tested: 10 µg/mL) | B1 |
| no binding (tested: 10 µg/mL) | B2 |
| no binding (tested: 10 µg/mL) | B3 |
| no binding (tested: 10 µg/mL) | B4 |
| no binding (tested: 10 µg/mL) | B5 |
| no binding (tested: 10 µg/mL) | B6 |
| no binding (tested: 10 µg/mL) | B8 |
| no binding (tested: 10 µg/mL) | B9 |

Molecular target: T1, FGFR4 (acro)
Test: ELISA

| binding result | Binder |
| --- | --- |
| no binding (tested: 10 µg/mL) | B2 |
| no binding (tested: 10 µg/mL) | B3 |
| no binding (tested: 10 µg/mL) | B4 |
| no binding (tested: 10 µg/mL) | B5 |
| no binding (tested: 10 µg/mL) | B6 |
| no binding (tested: 10 µg/mL) | B7 |
| no binding (tested: 10 µg/mL) | B8 |
| no binding (tested: 10 µg/mL) | B9 |

Molecular target: T2, human FGFR2b (Kaixia Biotechnology, …)
Test: BLI, antibody on AHC2 sensor

| Kd [nM] | koff [s⁻¹] | kon [M⁻¹ s⁻¹] | Binder |
| --- | --- | --- | --- |
| 8.58 | 0.00203 | 236000 | B1 |
| 4.51 | 0.00208 | 460000 | B2 |
| 6.18 | 0.00286 | 462000 | B3 |
| 7.6 | 0.00203 | 267000 | B4 |
| 2.7 | 0.000954 | 353000 | B5 |
| 5.1 | 0.00143 | 281000 | B6 |
| 12.2 | 0.00477 | 392000 | B7 |
| 7.62 | 0.00231 | 303000 | B8 |
| 3.71 | 0.00133 | 359000 | B9 |

Molecular target: T4, FGFR2c (acro)
Test: ELISA, antibody 10 µg/mL

| OD (450 nm) value | Binder |
| --- | --- |
| 0.127 | B1 |
| 0.091 | B2 |
| 0.113 | B3 |
| 0.089 | B4 |
| 0.118 | B5 |
| 0.111 | B6 |
| 0.106 | B8 |
| 0.137 | B9 |

Molecular target: T1, FGFR4 (acro)
Test: ELISA, antibody 10 µg/mL

| OD (450 nm) value | Binder |
| --- | --- |
| 0.156 | B2 |
| 0.093 | B3 |
| 0.116 | B4 |
| 0.139 | B5 |
| 0.145 | B6 |
| 0.099 | B7 |
| 0.123 | B8 |
| 0.136 | B9 |

Molecular target: T5, FGFR2b on KATO III cells (human, UniProt P21802-3 22-822)
T5 construct: whole, on cells; also called KATO III cells that overexpress FGFR2b
Test: flow cytometry, KATO III cells

T5 sequence (P21802 other isoform, or with tags, fused parts or gaps): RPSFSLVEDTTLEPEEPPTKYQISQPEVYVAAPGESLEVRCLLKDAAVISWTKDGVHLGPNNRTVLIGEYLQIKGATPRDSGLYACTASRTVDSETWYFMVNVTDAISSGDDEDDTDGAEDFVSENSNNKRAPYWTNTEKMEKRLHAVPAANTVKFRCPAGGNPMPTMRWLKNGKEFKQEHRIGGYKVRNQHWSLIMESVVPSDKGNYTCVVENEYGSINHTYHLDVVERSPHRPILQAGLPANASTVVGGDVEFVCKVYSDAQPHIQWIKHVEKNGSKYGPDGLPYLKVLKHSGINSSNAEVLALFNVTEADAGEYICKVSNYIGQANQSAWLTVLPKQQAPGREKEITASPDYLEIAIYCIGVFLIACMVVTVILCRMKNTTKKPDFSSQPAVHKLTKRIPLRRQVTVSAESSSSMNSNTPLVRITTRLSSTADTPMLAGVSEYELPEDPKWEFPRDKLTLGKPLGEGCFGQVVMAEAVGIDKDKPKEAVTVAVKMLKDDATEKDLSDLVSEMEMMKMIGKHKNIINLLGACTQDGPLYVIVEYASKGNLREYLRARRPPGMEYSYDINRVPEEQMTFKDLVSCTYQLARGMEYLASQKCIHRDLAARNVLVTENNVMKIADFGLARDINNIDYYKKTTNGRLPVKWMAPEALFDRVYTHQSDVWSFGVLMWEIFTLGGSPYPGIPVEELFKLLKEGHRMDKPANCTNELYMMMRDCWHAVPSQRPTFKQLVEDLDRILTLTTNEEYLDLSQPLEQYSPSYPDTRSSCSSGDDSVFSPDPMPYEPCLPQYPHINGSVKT

| EC50 [µg/mL] | Binder |
| --- | --- |
| 0.259 | B1 |
| 0.167 | B2 |
| 0.233 | B3 |
| 0.117 | B4 |
| 0.253 | B5 |
| 0.105 | B6 |
| 0.0656 | B7 |
| 0.159 | B8 |
| 0.236 | B9 |
